As a reminder, the Km is the concentration of substrate that gives half-maximal velocity. Broadly, the kcat is the maximal rate divided by the concentration of active sites. For orientation: kcat/Km means the second-order rate constant that governs catalysis at low substrate concentration.

Data set [1] addresses phytase YeAPPA variant YeAPPA-L162A (Leu162 into alanine), SEQ ID NO.4 (Yersinia enterocolitica, UniProt D9D7K9, L162A). The data set is described as follows: Kinetic parameters of phytase variant YeAPPA-L162A on sodium phytate. Particulars: YeAPPA-L162A vs wild phytase, in words.
For data set [2], the target named is phytase YeAPPA variant YeAPPA-E230G (Glu230 into glycine), SEQ ID NO.5 (Yersinia enterocolitica, UniProt D9D7K9, E230G). Description: Kinetic parameters of phytase variant YeAPPA-E230G on sodium phytate. Particulars: YeAPPA-E230G vs wild phytase.
Data set [3] concerns the target wild phytase YeAPPA, SEQ ID NO.1 (Yersinia enterocolitica, UniProt D9D7K9). Description: Kinetic parameters of wild phytase on sodium phytate (double reciprocal method). In kind it is biochemical. Particulars: optimal pH 5, 45° C.
The target in data set [4] is phytase YeAPPA variant YeAPPA-E230R (Glu230 into arginine), SEQ ID NO.7 (Yersinia enterocolitica, UniProt D9D7K9, E230R). Description: Kinetic parameters of phytase variant YeAPPA-E230R on sodium phytate. The conditions noted are these: YeAPPA-E230R vs wild phytase, in words.
Data set [5] deals with phytase YeAPPA variant YeAPPA-L162G (Leu162 into glycine), SEQ ID NO.3 (Yersinia enterocolitica, UniProt D9D7K9, L162G). Description: Kinetic parameters of phytase variant YeAPPA-L162G on sodium phytate. Particulars: YeAPPA-L162G vs wild phytase.
The target of data set [6] is phytase YeAPPA variant YeAPPA-E230P (Glu230 into proline), SEQ ID NO.6 (Yersinia enterocolitica, UniProt D9D7K9, E230P). The data set is described as follows: Kinetic parameters of phytase variant YeAPPA-E230P on sodium phytate. The conditions noted are these: YeAPPA-E230P vs wild phytase, in words. On the procedure:
According to embodiment of the present invention, the phytase variant YeAPPA-E230P with amino acid sequence as set forth in SEQ ID NO.6 is obtained by mutation at the 230th site of glutamic acid into proline for phytase with amino acid as set forth in SEQ ID NO.1.
The modified gene encoding the phytase variants were inserted into expression vector pET-22b (+), and transformed into E coli.
The effect of pepsin on the activity of the purified mutant phytase was determined by detecting the remained activity after being treated in pH 2 for 2 hours with the different concentrations of pepsin in a mass ratio to phytase ranging from 1/1000 to 1/1. […] After developing, OD is measured at 700 nm to calculate the phytase activity. 1 unit of phytase activity is determined to be the enzyme amount releasing 1 μmol of phosphate for 1 minute. The absolute value of the measured phytase activity may be calculated based on the standard curve of inorganic phosphate in dilution.

The subject of data set [7] is O=P(O)(O)O[C@H]1[C@H](OP(=O)(O)O)[C@@H](OP(=O)(O)O)[C@H](OP(=O)(O)O)[C@@H](OP(=O)(O)O)[C@H]1OP(=O)(O)O. Description: purified protein, by the assay type. Particulars: sodium phytate 0.0625-1.5 mmol/L.
[8] abbreviates: other: YeAPPA-E230G, optimal pH 5, 45° C.
[9] abbreviates: other: YeAPPA-E230P, optimal pH 5, 50° C.
Where [10] appears, read: other: YeAPPA-E230R, optimal pH 4, 45° C.
[11] abbreviates: other: YeAPPA-L162A, optimal pH 5, 45° C.
Where [12] appears, read: other: YeAPPA-L162G, optimal pH 5, 45° C.

As to `O=P(O)(O)O[C@H]1[C@H](OP(=O)(O)O)[C@@H](OP(=O)(O)O)[C@H](OP(=O)(O)O)[C@@H](OP(=O)(O)O)[C@H]1OP(=O)(O)O` [sodium phytate], the “reaction rate, conversion rate and catalytic efficiency compared with wild phytase” value in data set [1], in data set [4] and in data set [6] was “almost same as those of the wild phytase” throughout. The results for the “Catalytic efficiency Kcat/km relative to wild phytase” value in data set [2] and in data set [5] were 2.5 times and 1.7 times, respectively. In addition, the “Conversion rate Kcat relative to wild phytase” value in data set [2] is 2.5 times. Also, the “Reaction rate Vmax relative to wild phytase” value in data set [2] worked out at 2.5 times. This compound had a Kcat/Km in data set [3] of 26 S^−1 mM^−1. Moreover, the Vmax in data set [3] is recorded as 6.4 U mg^−1. The compound also had a Kcat in data set [3] (from theoretical molecular weight) of 4.9 S^−1.

Consider “phytase YeAPPA variant YeAPPA-E230G (Glu230 into glycine), SEQ ID NO.5 (Yersinia enterocolitica; E230G)”, for which, in data set [7] (setting [8]), the Km amounted to 190 µM, the Vmax stood at 16 µmol/min/mg, the kcat amounted to 12 s⁻¹ and the kcat/Km was determined as 64000 M⁻¹ s⁻¹.

Consider “phytase YeAPPA variant YeAPPA-E230P (Glu230 into proline), SEQ ID NO.6 (Yersinia enterocolitica; E230P)”, for which, in data set [7] (setting [9]), the Km is 190 µM, the Vmax stood at 6.7 µmol/min/mg, the kcat is 5.1 s⁻¹ and the kcat/Km was found to be 26000 M⁻¹ s⁻¹.

As to “phytase YeAPPA variant YeAPPA-E230R (Glu230 into arginine), SEQ ID NO.7 (Yersinia enterocolitica; E230R)”, in data set [7] (setting [10]), the Km was determined as 180 µM, the Vmax was 6.3 µmol/min/mg, the kcat turned out to be 4.8 s⁻¹ and the kcat/Km stood at 26000 M⁻¹ s⁻¹.

Turning to “phytase YeAPPA variant YeAPPA-L162A (Leu162 into alanine), SEQ ID NO.4 (Yersinia enterocolitica; L162A)”, in data set [7] (setting [11]), the Km is 190 µM, the Vmax was determined as 6.5 µmol/min/mg, the kcat was found to be 5 s⁻¹ and the kcat/Km stood at 27000 M⁻¹ s⁻¹.

Turning to “phytase YeAPPA variant YeAPPA-L162G (Leu162 into glycine), SEQ ID NO.3 (Yersinia enterocolitica; L162G)”, in data set [7] (setting [12]), the Km was 190 µM, the Vmax is 11 µmol/min/mg, the kcat is 8.2 s⁻¹ and the kcat/Km was determined as 43000 M⁻¹ s⁻¹.

(Values after patent US11155793B2, “Phytase variants YeAPPA having improved gastric protein resistance and acid resistance, and increased catalytic efficiency” (priority 2017, dated 2021).)
